Experiments:
[1] = biological target: Endogenous human IL-1B (THP1 supernatants) (human) (UniProt P01584); assay: cell-based or functional assay
[2] = biological target: recombinant human IL-1B (human) (UniProt P01584); assay: cell-based or functional assay

IC90, Endogenous human IL-1 B (THP1 supernatants), HEK blue [1]: 0.292 nM | IC50, rec. human IL-1 B, HEK blue [2]: 0.068 nM | IC50, rec. human IL-1 B, MRC-5 (IL-6 production) [2]: 0.032 nM | IC90, rec. human IL-1 B, HEK blue [2]: 0.503 nM | IC90, rec. human IL-1 B, MRC-5 (IL-6 production) [2]: 0.449 nM
Substance: ACZ885 (disclosed in WO 2002/016436) (antibody)

Reference: patent WO2016008851A1
